Experimental findings from paper PMC10117100 are described below.

In the experiment the target is Gluc1-E2F4 (human), Q16254. The experiment is described as follows: split reporter (BiFC, NanoBiT); Gaussia princeps protein complementation assay (GPCA): Gluc1 and Gluc2 N-terminal fusions co-transfected in HEK293T, luminescence of lysates after 48 h as normalized luminescence ratio (NLR); pairs count as interacting if NLR is above 5. The following applies: remark: other sources report otherwise.
Chain of Gluc1-E2F4 (human), Q16254 (Q16254 whole entry, the tested form may be a part): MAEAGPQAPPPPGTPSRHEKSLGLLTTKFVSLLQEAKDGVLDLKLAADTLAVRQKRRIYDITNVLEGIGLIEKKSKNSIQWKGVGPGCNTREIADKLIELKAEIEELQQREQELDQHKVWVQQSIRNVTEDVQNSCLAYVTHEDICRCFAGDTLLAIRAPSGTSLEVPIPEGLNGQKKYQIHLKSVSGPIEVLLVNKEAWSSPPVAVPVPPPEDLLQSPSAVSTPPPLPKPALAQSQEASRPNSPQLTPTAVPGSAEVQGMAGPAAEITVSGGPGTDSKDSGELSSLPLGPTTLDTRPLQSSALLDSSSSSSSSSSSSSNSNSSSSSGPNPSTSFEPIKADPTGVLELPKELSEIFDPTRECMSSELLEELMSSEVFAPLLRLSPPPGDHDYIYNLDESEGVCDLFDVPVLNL

B1: Gluc2-p130, Q08999 1-1139 (natural protein)
chain: MPSGGDQSPPPPPPPPAAAASDEEEEDDGEAEDAAPPAESPTPQIQQRFDELCSRLNMDEAARAEAWDSYRSMSESYTLEGNDLHWLACALYVACRKSVPTVSKGTVEGNYVSLTRILKCSEQSLIEFFNKMKKWEDMANLPPHFRERTERLERNFTVSAVIFKKYEPIFQDIFKYPQEEQPRQQRGRKQRRQPCTVSEIFHFCWVLFIYAKGNFPMISDDLVNSYHLLLCALDLVYGNALQCSNRKELVNPNFKGLSEDFHAKDSKPSSDPPCIIEKLCSLHDGLVLEAKGIKEHFWKPYIRKLYEKKLLKGKEENLTGFLEPGNFGESFKAINKAYEEYVLSVGNLDERIFLGEDAEEEIGTLSRCLNAGSGTETAERVQMKNILQQHFDKSKALRISTPLTGVRYIKENSPCVTPVSTATHSLSRLHTMLTGLRNAPSEKLEQILRTCSRDPTQAIANRLKEMFEIYSQHFQPDEDFSNCAKEIASKHFRFAEMLYYKVLESVIEQEQKRLGDMDLSGILEQDAFHRSLLACCLEVVTFSYKPPGNFPFITEIFDVPLYHFYKVIEVFIRAEDGLCREVVKHLNQIEEQILDHLAWKPESPLWEKIRDNENRVPTCEEVMPPQNLERADEICIAGSPLTPRRVTEVRADTGGLGRSITSPTTLYDRYSSPPASTTRRRLFVENDSPSDGGTPGRMPPQPLVNAVPVQNVSGETVSVTPVPGQTLVTMATATVTANNGQTVTIPVQGIANENGGITFFPVQVNVGGQAQAVTGSIQPLSAQALAGSLSSQQVTGTTLQVPGQVAIQQISPGGQQQKQGQSVTSSSNRPRKTSSLSLFFRKVYHLAAVRLRDLCAKLDISDELRKKIWTCFEFSIIQCPELMMDRHLDQLLMCAIYVMAKVTKEDKSFQNIMRCYRTQPQARSQVYRSVLIKGKRKRRNSGSSDSRSHQNSPTELNKDRTSRDSSPVMRSSSTLPVPQPSSAPPTPTRLTGANSDMEEEERGDLIQFYNNIYIKQIKTFAMKYSQANMDAPPLSPYPFVRTGSPRRIQLSQNHPVYISPHKNETMLSPREKIFYYFSNSPSKRLREINSMIRTGETPTKKRGILLEDGSESPAKRICPENHSALLRRLQDVANDRGSH
Regarding B1, the normalized luminescence ratio (NLR) was > 40.
